Data: PMC3439906

Target: M.EcoKI MTase (M2S1 methyltransferase core of the EcoKI Type I RM system) (E. coli K12) (UniProt P08957)
Test: ITC

UniProt P08957, sequence (P08957 whole entry, chain 1 of 2): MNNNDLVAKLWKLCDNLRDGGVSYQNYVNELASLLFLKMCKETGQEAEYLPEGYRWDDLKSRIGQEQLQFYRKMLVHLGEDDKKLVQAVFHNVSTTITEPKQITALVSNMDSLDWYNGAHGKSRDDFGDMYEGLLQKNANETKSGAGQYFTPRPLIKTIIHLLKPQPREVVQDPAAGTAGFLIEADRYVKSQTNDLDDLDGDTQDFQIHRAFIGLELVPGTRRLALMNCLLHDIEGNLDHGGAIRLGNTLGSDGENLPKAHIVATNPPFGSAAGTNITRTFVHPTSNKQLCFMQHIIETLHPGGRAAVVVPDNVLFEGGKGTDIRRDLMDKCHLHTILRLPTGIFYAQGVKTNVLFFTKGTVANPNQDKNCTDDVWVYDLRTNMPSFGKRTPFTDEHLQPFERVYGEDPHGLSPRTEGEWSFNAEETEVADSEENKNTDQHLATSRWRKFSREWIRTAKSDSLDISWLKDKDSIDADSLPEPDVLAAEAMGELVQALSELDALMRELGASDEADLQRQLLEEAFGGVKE
UniProt P08957, sequence (P05719 whole entry, chain 2 of 2, further chain): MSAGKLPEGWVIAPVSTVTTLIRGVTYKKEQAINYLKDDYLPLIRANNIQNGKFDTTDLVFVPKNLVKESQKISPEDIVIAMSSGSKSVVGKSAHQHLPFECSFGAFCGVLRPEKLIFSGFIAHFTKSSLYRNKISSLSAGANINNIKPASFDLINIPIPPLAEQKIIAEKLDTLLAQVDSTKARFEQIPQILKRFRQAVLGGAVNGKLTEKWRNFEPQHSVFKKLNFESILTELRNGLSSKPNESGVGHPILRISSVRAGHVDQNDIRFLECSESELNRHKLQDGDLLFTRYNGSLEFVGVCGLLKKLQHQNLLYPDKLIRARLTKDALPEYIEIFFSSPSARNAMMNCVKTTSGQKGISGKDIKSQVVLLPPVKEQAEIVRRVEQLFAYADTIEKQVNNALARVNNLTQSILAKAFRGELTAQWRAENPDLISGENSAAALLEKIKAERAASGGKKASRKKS

Ocr/POcr (natural protein)
dH: -15.3 kcal/mol
stoichiometry N (Ocr dimers per M.EcoKI): 0.89
